Measurements reported in patent US20240408227A1.

Biological target: recombinant human TfR1 (human) (UniProt P02786)
Assay: SPR array (Carterra LSA), IgG captured, TfR as analyte, 25 C

Chain of recombinant human TfR1 (human) (P02786 89-760 limits assumed): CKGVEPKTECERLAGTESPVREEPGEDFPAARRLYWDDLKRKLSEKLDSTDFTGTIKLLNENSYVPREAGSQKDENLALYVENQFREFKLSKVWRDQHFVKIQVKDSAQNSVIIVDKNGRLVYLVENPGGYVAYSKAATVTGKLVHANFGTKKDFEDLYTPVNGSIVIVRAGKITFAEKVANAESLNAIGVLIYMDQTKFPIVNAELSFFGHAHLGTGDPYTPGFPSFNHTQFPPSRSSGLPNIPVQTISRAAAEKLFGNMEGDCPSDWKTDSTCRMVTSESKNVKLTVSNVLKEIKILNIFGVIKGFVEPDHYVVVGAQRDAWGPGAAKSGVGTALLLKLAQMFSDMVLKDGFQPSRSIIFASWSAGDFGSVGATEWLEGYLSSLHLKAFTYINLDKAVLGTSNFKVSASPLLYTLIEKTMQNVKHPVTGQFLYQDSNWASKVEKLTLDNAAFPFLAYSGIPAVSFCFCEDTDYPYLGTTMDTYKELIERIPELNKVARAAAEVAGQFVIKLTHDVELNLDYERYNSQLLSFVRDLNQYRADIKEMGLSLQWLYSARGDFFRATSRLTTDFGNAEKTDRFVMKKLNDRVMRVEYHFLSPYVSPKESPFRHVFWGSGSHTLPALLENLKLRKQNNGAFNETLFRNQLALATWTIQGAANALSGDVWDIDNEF

- Kd: 0.536 nM
- kon: 774000 M⁻¹ s⁻¹
Substance: OKT9 control anti-TfR1 antibody (mouse IgG)
